The text below walks through data of patent US20240398911A1 (BOARD OF THE TRUSTEES OF THE UNIVERSITY OF ILLINOIS, published 2024).

Read-outs that look alike come from different tables or passages of the source.

What is called Kd is the constant that tells how readily two partners part at equilibrium. A high value points to a looser complex. As a reminder, the koff is a measure of how fast the partners let go of each other. By kon is commonly meant a measure of how fast the partners come together. A high value points to fast association. As usually defined, the EC50 (read off the curve) is the concentration that produces a half-maximal response. A higher EC50 (read off the curve) goes with a need for much substance.

The target of experiment [1] is T1, RBD (a.a. 333-529) of SARS-CoV-2 S with 8 histidine tag (SARS-CoV-2, UniProt P0DTC2 333-529). As to the kind of experiment: BLI, sACE22-IgG1 immobilized, RBD-8h analyte. (In general: BLI is a label-free optical method that tracks binding on a fibre tip over time.)
Experiment [2] concerns the target S protein of SARS-CoV-1 expressed on Expi293F cells (SARS-CoV-1, UniProt P59594 14-1255). The experiment in a line: flow cytometry; Expi293F cells expressing S of SARS-CoV-1; normalized units, N=3. (In general: A flow cytometer gives signals particle by particle.)
The target in experiment [3] is T1, RBD (a.a. 333-529) of SARS-CoV-2 S with ….
The target of experiment [4] is full length S of SARS-CoV-2 (untagged, a.a. 1-1273) expressed on Expi293F cells (SARS-CoV-2, UniProt P0DTC2 16-1273).
Experiment [5] has as its target T1, RBD (a.a. 333-529) of SARS-CoV-2 S with …. The source holds these as a separate data set.

B1: dimeric sACE22.v2 fused to the Fc of human IgG1 (Fc fusion)
chain: STIEEQAKYFLDKFNHEAEDLFYQSSLASWNYNTNITEENVQNMNNAGDKWSAFLKEQSTTAQMYPLQEIQNLTVKLQLQALQQNGSSVLSEDKSKRLNTILNTMSTIYSTGKVCNPDNPQECLLLEPGLNEIMANSLDYNERLWAWESWRSEVGKQLRPLYEEYVVLKNEMARANHYEDYGDYWRGDYEVNGVDGYDYSRGQLIEDVEHTFEEIKPLYEHLHAYVRAKLMNAYPSYISPIGCLPAHLLGDMWGRFWTNLYSLTVPFGQKPNIDVTDAMVDQAWDAQRIFKEAEKFFVSVGLPNMTQGFWEYSMLTDPGNVQKAVCHPTAWDLGKGDFRILMCTKVTMDDFLTAHHEMGHIQYDMAYLAQPFLLRNGANEGFHEAVGEIMSLSAATPKHLKSIGLLSPDFQEDNETEINFLLKQALTIVGTLPFTYMLEKWRWMVFKGEIPKDQWMKKWWEMKREIVGVVEPVPHDETYCDPASLFHVSNDYSFIRYYTRTLYQFQFQEALCQAAKHEGPLHKCDISNSTEAGQKLFNMLRLGKSEPWTLALENVVGAKNMNVRPLLNYFEPLFTWLKDQNKNSFVGWSTDWSPYADQSIKVRISLKSALGDKAYEWNDNEMYLFRSSVAYAMRQYFLKVKNQMILFGEEDVRVANLKPRISFNFFVTAPKNVSDIIPRTEVEKAIRMSRSRINDAFRLNDNSLEFLGIQPTLGGS
In experiment [1], B1 showed a Kd of 0.2 nM, a koff of 0.00014 s⁻¹ and a kon of 580000 M⁻¹ s⁻¹.

B2: REGN10933 (casirivimab) (antibody, V domains shown)
VH: QVQLVESGGGLVKPGGSLRLSCAASGFTFSDYYMSWIRQAPGKGLEWVSYITYSGSTIYYADSVKGRFTISRDNAKSSLYLQMNSLRAEDTAVYYCARDRGTTMVPFDYWGQGTLVTVSS
VL: DIQMTQSPSSLSASVGDRVTITCQASQDITNYLNWYQQKPGKAPKLLIYAASNLETGVPSRFSGSGSGTDFTFTISGLQPEDIATYYCQQYDNLPLTFGGGTKVEIKR
As for B2, in experiment [2], the binding result was “no binding (tested: 70 nM)”.

B3: dimeric sACE22.v2.4 with 8 histidine tag (receptor)
chain: STIEEQAKYFLDKFNHEAEDLFYQSSLASWNYNTNITEENVQNMNNAGDKWSAFLKEQSTTAQMYPLQEIQNLTVKLQLQALQQNGSSVLSEDKSKRLNTILNTMSTIYSTGKVCNPDNPQECLLLEPGLNEIMANSLDYNERLWAWESWRSEVGKQLRPLYEEYVVLKNEMARANHYEDYGDYWRGDYEVNGVDGYDYSRGQLIEDVEHTFEEIKPLYEHLHAYVRAKLMNAYPSYISPIGCLPAHLLGDMWGRFWTNLYSLTVPFGQKPNIDVTDAMVDQAWDAQRIFKEAEKFFVSVGLPNMTQGFWEYSMLTDPGNVQKAVCHPTAWDLGKGDFRILMCTKVTMDDFLTAHHEMGHIQYDMAYAAQPFLLRNGANEGFHEAVGEIMSLSAATPKHLKSIGLLSPDFQEDNETEINFLLKQALTIVGTLPFTYMLEKWRWMVFKGEIPKDQWMKKWWEMKREIVGVVEPVPHDETYCDPASLFHVSNDYSFIRYYTRTLYQFQFQEALCQAAKHEGPLHKCDISNSTEAGQKLFNMLRLGKSEPWTLALENVVGAKNMNVRPLLNYFEPLFTWLKDQNKNSFVGWSTDWSPYADQSIKVRISLKSALGDKAYEWNDNEMYLFRSSVAYAMRQYFLKVKNQMILFGEEDVRVANLKPRISFNFFVTAPKNVSDIIPRTEVEKAIRMSRSRINDAFRLNDNSLEFLGIQPTLGGSGHHHHHHHH
As for B3, the “IC50 (read off the curve)” value in experiment [3] is roughly 4 nM.

B4: REGN10987 (imdevimab) (antibody, V domains shown)
VH: QVQLVESGGGVVQPGRSLRLSCAASGFTFSNYAMYWVRQAPGKGLEWVAVISYDGSNKYYADSVKGRFTISRDNSKNTLYLQMNSLRTEDTAVYYCASGSDYGDYLLVYWGQGTLVTVSS
VL: QSALTQPASVSGSPGQSITISCTGTSSDVGGYNYVSWYQQHPGKAPKLMIYDVSKRPSGVSNRFSGSKSGNTASLTISGLQSEDEADYYCNSLTSISTWVFGGGTKLTVLG
Turning to B4, the binding result in experiment [2] is “no binding (tested: 70 nM)”.

B5: sACE2.v2 with 8 histidine tag (receptor)
chain: STIEEQAKYFLDKFNHEAEDLFYQSSLASWNYNTNITEENVQNMNNAGDKWSAFLKEQSTTAQMYPLQEIQNLTVKLQLQALQQNGSSVLSEDKSKRLNTILNTMSTIYSTGKVCNPDNPQECLLLEPGLNEIMANSLDYNERLWAWESWRSEVGKQLRPLYEEYVVLKNEMARANHYEDYGDYWRGDYEVNGVDGYDYSRGQLIEDVEHTFEEIKPLYEHLHAYVRAKLMNAYPSYISPIGCLPAHLLGDMWGRFWTNLYSLTVPFGQKPNIDVTDAMVDQAWDAQRIFKEAEKFFVSVGLPNMTQGFWEYSMLTDPGNVQKAVCHPTAWDLGKGDFRILMCTKVTMDDFLTAHHEMGHIQYDMAYLAQPFLLRNGANEGFHEAVGEIMSLSAATPKHLKSIGLLSPDFQEDNETEINFLLKQALTIVGTLPFTYMLEKWRWMVFKGEIPKDQWMKKWWEMKREIVGVVEPVPHDETYCDPASLFHVSNDYSFIRYYTRTLYQFQFQEALCQAAKHEGPLHKCDISNSTEAGQKLFNMLRLGKSEPWTLALENVVGAKNMNVRPLLNYFEPLFTWLKDQNKNSFVGWSTDWSPYADGSGHHHHHHHH
On to B5, for which the “EC50 (read off the curve)” value in experiment [4] was roughly 10 nM. For the same molecule, in experiment [5], the “IC50 (read off the curve)” value was roughly 6 nM.
